Measured values reported in the supplement of paper PMC9112550, “Optimization of the antimicrobial peptide Bac7 by deep mutational scanning” (BMC Biology, 2022).

System: Escherichia coli TOP10
Test: shrunken log2 fold change of peptide-encoding DNA abundance (4.5 h post-induction vs induction); higher = less antimicrobial activity (less host growth inhibition)
Conditions: time post-induction: 4.5 h; library: site-saturation at positions 5, 18, 19, 20
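Also: peptides expressed intracellularly from a pBAD plasmid library in pooled LB shake-flask culture, induced with 0.3% L-arabinose, DNA abundance read by NGS, three biological replicates, DESeq2 with apeglm shrinkage.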

Sequence	shrunken log2 fold change
RRIRNRPPRLPRPRPRPRWFPRP	0.173
RRIRNRPPRLPRPRPRPWHSPRP	-0.496
RRIRWRPPRLPRPRPRPHKGPRP	-0.185
RRIRLRPPRLPRPRPRPMSHPRP	0.0207
RRIRHRPPRLPRPRPRPERVPRP	0.228
RRIRDRPPRLPRPRPRPVVWPRP	0.902
RRIRKRPPRLPRPRPRPQELPRP	0.329
RRIRNRPPRLPRPRPRPALNPRP	0.0657
RRIRIRPPRLPRPRPRPGNFPRP	-0.064
RRIRWRPPRLPRPRPRPKHHPRP	-0.208
RRIRYRPPRLPRPRPRPVCCPRP	-0.644
RRIRWRPPRLPRPRPRPQHIPRP	-0.736
RRIRKRPPRLPRPRPRPIWVPRP	0.00396
RRIRIRPPRLPRPRPRPYPGPRP	-0.0674
RRIRVRPPRLPRPRPRPEADPRP	0.0974
RRIRARPPRLPRPRPRPSQPPRP	-0.0248
RRIRIRPPRLPRPRPRPSINPRP	-1.03
RRIRCRPPRLPRPRPRPVDFPRP	-0.252
RRIRIRPPRLPRPRPRPEFSPRP	0.00834
RRIRKRPPRLPRPRPRPCELPRP	-0.00602
RRIRDRPPRLPRPRPRPKKHPRP	-0.0344
RRIRARPPRLPRPRPRPKCRPRP	0.237
RRIRFRPPRLPRPRPRPTLGPRP	0.175
RRIRGRPPRLPRPRPRPKYQPRP	0.159
RRIRQRPPRLPRPRPRPMMMPRP	-0.327

Sequence	shrunken log2 fold change
RRIRHRPPRLPRPRPRPEDIPRP	-0.00674
RRIRKRPPRLPRPRPRPPKWPRP	0.0966
RRIRQRPPRLPRPRPRPKFMPRP	-0.18
RRIRYRPPRLPRPRPRPIFHPRP	-0.456
RRIRTRPPRLPRPRPRPFTKPRP	-0.0107
RRIRTRPPRLPRPRPRPRKFPRP	0.0711
RRIRNRPPRLPRPRPRPAAEPRP	0.232
RRIRDRPPRLPRPRPRPDRVPRP	-0.0392
RRIRSRPPRLPRPRPRPNVVPRP	-0.0558
RRIRDRPPRLPRPRPRPPIEPRP	-0.0618
RRIRGRPPRLPRPRPRPDVEPRP	1.27
RRIRKRPPRLPRPRPRPHASPRP	0.073
RRIRVRPPRLPRPRPRPEAQPRP	0.112
RRIRCRPPRLPRPRPRPPNTPRP	-0.0497
RRIRIRPPRLPRPRPRPTPEPRP	0.232
RRIRLRPPRLPRPRPRPQTPPRP	0.358
RRIRKRPPRLPRPRPRPTTPPRP	0.427
RRIRIRPPRLPRPRPRPCDYPRP	-1.01
RRIRFRPPRLPRPRPRPVTKPRP	0.19
RRIRARPPRLPRPRPRPAFNPRP	0.273
RRIRSRPPRLPRPRPRPGNLPRP	-0.0533
RRIRHRPPRLPRPRPRPTQAPRP	0.255
RRIRWRPPRLPRPRPRPKFWPRP	0.0806
RRIRYRPPRLPRPRPRPVVFPRP	-0.747
RRIRVRPPRLPRPRPRPHLQPRP	0.14

Sequence	shrunken log2 fold change
RRIRMRPPRLPRPRPRPLADPRP	3.11
RRIRFRPPRLPRPRPRPIWEPRP	-0.0122
RRIRKRPPRLPRPRPRPMVQPRP	0.208
RRIRYRPPRLPRPRPRPSFVPRP	-0.714
RRIRKRPPRLPRPRPRPLPWPRP	0.814
RRIRTRPPRLPRPRPRPCSWPRP	0.0291
RRIRMRPPRLPRPRPRPQSPPRP	0.213
RRIRARPPRLPRPRPRPGQEPRP	0.0636
RRIRLRPPRLPRPRPRPNVKPRP	-0.107
RRIRFRPPRLPRPRPRPKVAPRP	0.192
RRIRRRPPRLPRPRPRPAEHPRP	0.313
RRIRLRPPRLPRPRPRPTRVPRP	0.389
RRIRGRPPRLPRPRPRPSPPPRP	0.569
RRIRWRPPRLPRPRPRPEFIPRP	0.186
RRIRYRPPRLPRPRPRPCLRPRP	-0.286
RRIRTRPPRLPRPRPRPEWEPRP	0.0583
RRIRKRPPRLPRPRPRPLCWPRP	0.52
RRIRQRPPRLPRPRPRPLQDPRP	-0.0148
RRIRCRPPRLPRPRPRPTQWPRP	0.202
RRIRHRPPRLPRPRPRPVYCPRP	-0.49
RRIRARPPRLPRPRPRPSQCPRP	-0.121
RRIRWRPPRLPRPRPRPQDQPRP	0.0586
RRIRNRPPRLPRPRPRPWVPPRP	-1.03
RRIRCRPPRLPRPRPRPWMPPRP	-0.178
RRIRIRPPRLPRPRPRPDFMPRP	-0.661

Sequence	shrunken log2 fold change
RRIRMRPPRLPRPRPRPAQMPRP	-0.0763
RRIRLRPPRLPRPRPRPMGDPRP	0.0227
RRIRGRPPRLPRPRPRPYQMPRP	-0.0136
RRIRRRPPRLPRPRPRPWFCPRP	-0.101
RRIRIRPPRLPRPRPRPSEWPRP	0.151
RRIRDRPPRLPRPRPRPKQPPRP	-0.0112
RRIRWRPPRLPRPRPRPACTPRP	0.334
RRIRKRPPRLPRPRPRPECKPRP	0.506
RRIRIRPPRLPRPRPRPGDHPRP	0.14
RRIRPRPPRLPRPRPRPWLWPRP	0.0404
RRIRERPPRLPRPRPRPCCMPRP	-0.831
RRIRIRPPRLPRPRPRPQANPRP	0.00435
RRIRKRPPRLPRPRPRPIVLPRP	-0.299
RRIRFRPPRLPRPRPRPNCLPRP	-0.0273
RRIRKRPPRLPRPRPRPWIDPRP	-0.00174
RRIRARPPRLPRPRPRPTNKPRP	-0.0139
RRIRRRPPRLPRPRPRPIMLPRP	-0.272
RRIRNRPPRLPRPRPRPNERPRP	0.0308
RRIRKRPPRLPRPRPRPCRYPRP	-0.00884
RRIRYRPPRLPRPRPRPPITPRP	-0.834
RRIRERPPRLPRPRPRPRGAPRP	0.59
RRIRTRPPRLPRPRPRPNREPRP	0.115
RRIRKRPPRLPRPRPRPTHIPRP	0.328
RRIRPRPPRLPRPRPRPKHMPRP	-0.0288
RRIRGRPPRLPRPRPRPVAQPRP	0.719

Sequence	shrunken log2 fold change
RRIRFRPPRLPRPRPRPGFTPRP	-0.187
RRIRARPPRLPRPRPRPVWVPRP	0.321
RRIRWRPPRLPRPRPRPSRDPRP	0.479
RRIRRRPPRLPRPRPRPTWMPRP	0.174
RRIRARPPRLPRPRPRPKQWPRP	0.587
RRIRARPPRLPRPRPRPSKGPRP	-0.133
RRIRDRPPRLPRPRPRPPCKPRP	-0.129
RRIRNRPPRLPRPRPRPYECPRP	-0.177
RRIRLRPPRLPRPRPRPIRVPRP	0.101
RRIRHRPPRLPRPRPRPLGMPRP	-0.227
RRIRGRPPRLPRPRPRPFQSPRP	-0.00674
RRIRRRPPRLPRPRPRPPGCPRP	0.417
RRIRQRPPRLPRPRPRPEPKPRP	0.244
RRIRVRPPRLPRPRPRPDSQPRP	-0.116
RRIRDRPPRLPRPRPRPTYWPRP	0.01
RRIRVRPPRLPRPRPRPTPCPRP	-0.147
RRIRNRPPRLPRPRPRPKHHPRP	-0.487
RRIRARPPRLPRPRPRPSGDPRP	0.15
RRIRSRPPRLPRPRPRPAYAPRP	0.0867
RRIRPRPPRLPRPRPRPPDLPRP	0.366
RRIRPRPPRLPRPRPRPWDTPRP	-0.743
RRIRGRPPRLPRPRPRPPNEPRP	0.947
RRIRSRPPRLPRPRPRPPCMPRP	0.464
RRIRTRPPRLPRPRPRPVYGPRP	-0.167
RRIRYRPPRLPRPRPRPRYYPRP	-2.49

Sequence	shrunken log2 fold change
RRIRTRPPRLPRPRPRPRCPPRP	0.0716
RRIRFRPPRLPRPRPRPVQCPRP	0.0456
RRIRKRPPRLPRPRPRPDAMPRP	0.618
RRIRKRPPRLPRPRPRPANIPRP	0.214
RRIRLRPPRLPRPRPRPCFWPRP	0.14
RRIRTRPPRLPRPRPRPLYSPRP	-0.575
RRIRARPPRLPRPRPRPMKQPRP	0.0535
RRIRNRPPRLPRPRPRPGNRPRP	-0.0775
RRIRYRPPRLPRPRPRPNYMPRP	-0.357
RRIRLRPPRLPRPRPRPHISPRP	-0.272
RRIRWRPPRLPRPRPRPKDQPRP	0.508
RRIRYRPPRLPRPRPRPPEEPRP	0.0153
RRIRGRPPRLPRPRPRPDGMPRP	0.86
RRIRERPPRLPRPRPRPMCTPRP	0.107
RRIRERPPRLPRPRPRPLVNPRP	-0.456
RRIRDRPPRLPRPRPRPVKSPRP	-0.00931
RRIRLRPPRLPRPRPRPEYLPRP	-0.0639
RRIRFRPPRLPRPRPRPWCEPRP	-0.429
RRIRSRPPRLPRPRPRPNWPPRP	0.278
RRIRQRPPRLPRPRPRPGLHPRP	-0.111
RRIRVRPPRLPRPRPRPNYHPRP	-0.489
RRIRDRPPRLPRPRPRPRVWPRP	0.352
RRIRVRPPRLPRPRPRPWWKPRP	0.0375
RRIRVRPPRLPRPRPRPWIHPRP	-0.349
RRIRPRPPRLPRPRPRPTYVPRP	0.0486
